The labels stand for the following.
B1: R4145 (peptide)
peptide: cyclo(Y[Tle]KH[NMeA][Phg][Trp(7-aza)]Y[NMePhe(4-F)][Sar][Pra])
SMILES: C#CC[C@@H]1NC(=O)CN(C)C(=O)[C@H](Cc2ccc(F)cc2)N(C)C(=O)[C@H](Cc2ccc(O)cc2)NC(=O)[C@H](Cc2c[nH]c3ncccc23)NC(=O)[C@H](c2ccccc2)NC(=O)[C@H](C)N(C)C(=O)[C@H](Cc2c[nH]cn2)NC(=O)[C@H](CCCCN)NC(=O)[C@H](C(C)(C)C)NC(=O)[C@H](Cc2ccc(O)cc2)NC1=O
B2: R4139 (peptide)
peptide: cyclo([PEG1]Y[Tle]KH[NMeA][Phg][Trp(7-aza)]Y[NMePhe(4-F)][Sar][Pra])
SMILES: C#CC[C@@H]1NC(=O)CN(C)C(=O)[C@H](Cc2ccc(F)cc2)N(C)C(=O)[C@H](Cc2ccc(O)cc2)NC(=O)[C@H](Cc2c[nH]c3ncccc23)NC(=O)[C@H](c2ccccc2)NC(=O)[C@H](C)N(C)C(=O)[C@H](Cc2c[nH]cn2)NC(=O)[C@H](CCCCN)NC(=O)[C@H](C(C)(C)C)NC(=O)[C@H](Cc2ccc(O)cc2)NC(=O)CCOCCNC1=O
B3: R4144 (peptide)
peptide: Ac-[Nva]CY[Tle]K[dP][NMeA][Phg][Trp(7-aza)]Y[NMePhe(4-F)][Sar]C-NH2
modifications: linker 2-13 via mXylylene
SMILES: CCC[C@H](NC(C)=O)C(=O)N[C@H]1CSCc2cccc(c2)CSC[C@@H](C(N)=O)NC(=O)CN(C)C(=O)[C@H](Cc2ccc(F)cc2)N(C)C(=O)[C@H](Cc2ccc(O)cc2)NC(=O)[C@H](Cc2c[nH]c3ncccc23)NC(=O)[C@H](c2ccccc2)NC(=O)[C@H](C)N(C)C(=O)[C@H]2CCCN2C(=O)[C@H](CCCCN)NC(=O)[C@H](C(C)(C)C)NC(=O)[C@H](Cc2ccc(O)cc2)NC1=O
B4: R4141 (peptide)
peptide: Ac-[Nva]CY[Tle]A[Dap][NMeA][Phg][Trp(7-aza)]Y[NMePhe(4-F)][Sar]C-NH2
modifications: linker 2-13 via mXylylene
SMILES: CCC[C@H](NC(C)=O)C(=O)N[C@H]1CSCc2cccc(c2)CSC[C@@H](C(N)=O)NC(=O)CN(C)C(=O)[C@H](Cc2ccc(F)cc2)N(C)C(=O)[C@H](Cc2ccc(O)cc2)NC(=O)[C@H](Cc2c[nH]c3ncccc23)NC(=O)[C@H](c2ccccc2)NC(=O)[C@H](C)N(C)C(=O)[C@H](CN)NC(=O)[C@H](C)NC(=O)[C@H](C(C)(C)C)NC(=O)[C@H](Cc2ccc(O)cc2)NC1=O
B5: R4132 (peptide)
peptide: Ac-[Nva]CY[Tle]KH[NMeS][Phg][Trp(7-aza)]Y[NMePhe(4-F)][Sar]C-NH2
modifications: linker 2-13 via mXylylene
SMILES: CCC[C@H](NC(C)=O)C(=O)N[C@H]1CSCc2cccc(c2)CSC[C@@H](C(N)=O)NC(=O)CN(C)C(=O)[C@H](Cc2ccc(F)cc2)N(C)C(=O)[C@H](Cc2ccc(O)cc2)NC(=O)[C@H](Cc2c[nH]c3ncccc23)NC(=O)[C@H](c2ccccc2)NC(=O)[C@H](CO)N(C)C(=O)[C@H](Cc2c[nH]cn2)NC(=O)[C@H](CCCCN)NC(=O)[C@H](C(C)(C)C)NC(=O)[C@H](Cc2ccc(O)cc2)NC1=O
B6: R4133 (peptide)
peptide: Ac-[Nva]CY[Tle]AH[NMeK](Acryloyl)[Phg][Trp(7-aza)]Y[NMePhe(4-F)][Sar]C-NH2
modifications: linker 2-13 via mXylylene
SMILES: C=CC(=O)NCCCC[C@H]1C(=O)N[C@@H](c2ccccc2)C(=O)N[C@@H](Cc2c[nH]c3ncccc23)C(=O)N[C@@H](Cc2ccc(O)cc2)C(=O)N(C)[C@@H](Cc2ccc(F)cc2)C(=O)N(C)CC(=O)N[C@H](C(N)=O)CSCc2cccc(c2)CSC[C@H](NC(=O)[C@H](CCC)NC(C)=O)C(=O)N[C@@H](Cc2ccc(O)cc2)C(=O)N[C@@H](C(C)(C)C)C(=O)N[C@@H](C)C(=O)N[C@@H](Cc2c[nH]cn2)C(=O)N1C
B7: R4146 (peptide)
peptide: Ac-[Nva]CY[Tle]A[DABAC1][NMeA][Phg][Trp(7-aza)]Y[NMePhe(4-F)][Sar]C-NH2
modifications: linker 2-13 via mXylylene
SMILES: C=CC(=O)NCC[C@@H]1NC(=O)[C@H](C)NC(=O)[C@H](C(C)(C)C)NC(=O)[C@H](Cc2ccc(O)cc2)NC(=O)[C@@H](NC(=O)[C@H](CCC)NC(C)=O)CSCc2cccc(c2)CSC[C@@H](C(N)=O)NC(=O)CN(C)C(=O)[C@H](Cc2ccc(F)cc2)N(C)C(=O)[C@H](Cc2ccc(O)cc2)NC(=O)[C@H](Cc2c[nH]c3ncccc23)NC(=O)[C@H](c2ccccc2)NC(=O)[C@H](C)N(C)C1=O
B8: R4140 (peptide)
peptide: Ac-[Nva]CY[Tle]A[Dab][NMeA][Phg][Trp(7-aza)]Y[NMePhe(4-F)][Sar]C-NH2
modifications: linker 2-13 via mXylylene
SMILES: CCC[C@H](NC(C)=O)C(=O)N[C@H]1CSCc2cccc(c2)CSC[C@@H](C(N)=O)NC(=O)CN(C)C(=O)[C@H](Cc2ccc(F)cc2)N(C)C(=O)[C@H](Cc2ccc(O)cc2)NC(=O)[C@H](Cc2c[nH]c3ncccc23)NC(=O)[C@H](c2ccccc2)NC(=O)[C@H](C)N(C)C(=O)[C@H](CCN)NC(=O)[C@H](C)NC(=O)[C@H](C(C)(C)C)NC(=O)[C@H](Cc2ccc(O)cc2)NC1=O
B9: R4137 (peptide)
peptide: cyclo([Ahx]Y[Tle]KH[NMeA][Phg][Trp(7-aza)]Y[NMePhe(4-F)][Sar][Pra])
SMILES: C#CC[C@@H]1NC(=O)CN(C)C(=O)[C@H](Cc2ccc(F)cc2)N(C)C(=O)[C@H](Cc2ccc(O)cc2)NC(=O)[C@H](Cc2c[nH]c3ncccc23)NC(=O)[C@H](c2ccccc2)NC(=O)[C@H](C)N(C)C(=O)[C@H](Cc2c[nH]cn2)NC(=O)[C@H](CCCCN)NC(=O)[C@H](C(C)(C)C)NC(=O)[C@H](Cc2ccc(O)cc2)NC(=O)CCCCCNC1=O
B10: R4142 (peptide)
peptide: Ac-[Nva]CY[Tle]AH[MORAC][Phg][Trp(7-aza)]Y[NMePhe(4-F)][Sar]C-NH2
modifications: linker 2-13 via mXylylene
SMILES: C=CC(=O)NCCC[C@H]1C(=O)N[C@@H](c2ccccc2)C(=O)N[C@@H](Cc2c[nH]c3ncccc23)C(=O)N[C@@H](Cc2ccc(O)cc2)C(=O)N(C)[C@@H](Cc2ccc(F)cc2)C(=O)N(C)CC(=O)N[C@H](C(N)=O)CSCc2cccc(c2)CSC[C@H](NC(=O)[C@H](CCC)NC(C)=O)C(=O)N[C@@H](Cc2ccc(O)cc2)C(=O)N[C@@H](C(C)(C)C)C(=O)N[C@@H](C)C(=O)N[C@@H](Cc2c[nH]cn2)C(=O)N1C
B11: R4136 (peptide)
peptide: Ac-[Nva]CY[Tle]A[Dap](Acryloyl)[NMeA][Phg][Trp(7-aza)]Y[NMePhe(4-F)][Sar]C-NH2
modifications: linker 2-13 via mXylylene
SMILES: C=CC(=O)NC[C@@H]1NC(=O)[C@H](C)NC(=O)[C@H](C(C)(C)C)NC(=O)[C@H](Cc2ccc(O)cc2)NC(=O)[C@@H](NC(=O)[C@H](CCC)NC(C)=O)CSCc2cccc(c2)CSC[C@@H](C(N)=O)NC(=O)CN(C)C(=O)[C@H](Cc2ccc(F)cc2)N(C)C(=O)[C@H](Cc2ccc(O)cc2)NC(=O)[C@H](Cc2c[nH]c3ncccc23)NC(=O)[C@H](c2ccccc2)NC(=O)[C@H](C)N(C)C1=O

*1 amine or outer side, *2 acyl side, *3 side chain or, on linkers, in order; H or OH if unused. Bridges are numbered along the chain shown (N, C = ends). Primed or numbered codes have the meaning given here. Where no end group is shown, it is not given here. [ ]: non-standard residue; d: D form. The star is where a group is joined. ξ: configuration not given here. DAPTZAC3 = (S)-3-(4-(3-acrylamidopropyl)-1H-1,2,3-triazol-1-yl)-2-aminopropanoic acid, C=CC(=O)NCCCc1cn(C[C@H](N[*:1])C(=O)[*:2])nn1; DAPTZAC1 = (S)-3-(4-(acrylamidomethyl)-1H-1,2,3-triazol-1-yl)-2-aminopropanoic acid, C=CC(=O)NCc1cn(C[C@H](N[*:1])C(=O)[*:2])nn1; ADTZPA″ = (S)-2-amino-3-(1-dodecyl-1H-1,2,3-triazol-4-yl)propanoic acid, CCCCCCCCCCCCn1cc(C[C@H](N[*:1])C(=O)[*:2])nn1; MORAC = (S)-5-acrylamido-2-(methylamino)pentanoic acid, C=CC(=O)NCCC[C@@H](C(=O)[*:2])N(C)[*:1]; DABAC1 = (S)-4-acrylamido-2-aminobutanoic acid, C=CC(=O)NCC[C@H](N[*:1])C(=O)[*:2]; Trp(7-aza) = N[C@@H](Cc1c[nH]c2ncccc12)C(=O)O; NMePhe(4-F) = CN[C@@H](Cc1ccc(F)cc1)C(=O)O; ivDde = CC(C)CC(=C1C(=O)CC(C)(C)CC1=O)*; mXylylene = c1cc(C[*:1])cc(C[*:2])c1; Glutaryl = O=C(CCCC(=O)[*:2])[*:1]; NMeK = CN[C@@H](CCCCN)C(=O)O; PEG4 = NCCOCCOCCOCCOCCC(=O)O; Phg = N[C@H](C(=O)O)c1ccccc1; Tle = CC(C)(C)[C@H](N)C(=O)O; NMeS = CN[C@@H](CO)C(=O)O; ξPhg = NC(C(=O)O)c1ccccc1; NMeA = CN[C@@H](C)C(=O)O; Pra = C#CC[C@H](N)C(=O)O; Dab = NCC[C@H](N)C(=O)O; Nva = CCC[C@H](N)C(=O)O; Dap = NC[C@H](N)C(=O)O; Acryloyl = C=CC(=O)*; PEG1 = NCCOCCC(=O)O; Ahx = NCCCCCC(=O)O; Sar = CNCC(=O)O

The term IC50 denotes the point on the concentration scale where inhibition reaches its midpoint. A high value points to weaker potency.

For this test, the target named is GMPPNP-loaded H-Ras or GTP-loaded K-Ras. Put plainly: FP competition, displacement of probe R4007 from Ras.
In turn, Ac-[Nva]CY[Tle]K(4‑(dimethylamino)benzoyl)H[NMeA][Phg][Trp(7-aza)]Y[NMePhe(4-F)][Sar]C-NH2 (linker 2-13 via mXylylene) [R4134] displayed an IC50 of 346 nM. Glutaryl-[Nva]CY[Tle]K(ivDde)H[NMeA][Phg][Trp(7-aza)]Y[NMePhe(4-F)][Sar]C-NH2 (linker 2-13 via m‑xylylene) [R4138] came in with an IC50 of 461 nM. The value for B1 was 2800 nM. Consider Ac-[Nva]CY[Tle]KH[NMeA][Phg][Trp(7-aza)]Y[NMePhe(4-F)][Sar]C[PEG4][ADTZPA″]-NH2 (linker 2-13 via mXylylene) [R4147], for which the IC50 came to 5190 nM.

Ac-[Nva]CY[Tle]K(ivDde)H[NMeA][Phg][Trp(7-aza)]Y[NMePhe(4-F)][Sar]C (linker 2-13 via m‑xylylene) [R4135] had an IC50 of 364 nM.

Ac-[Nva]SY[Tle]A[DAPTZAC1][NMeA][ξPhg][Trp(7-aza)]Y[NMePhe(4-F)][Sar]S-NH2 [R4005]: the concentration for half-maximal inhibition (IC50) came to 2070 nM. As to B2, the half-maximal inhibitory concentration (IC50) amounted to 522 nM. Ac-[Nva]CY[Tle]KH[NMeA][Phg][Trp(7-aza)]Y[NMePhe(4-F)][Sar]CGGGCVIM (linker 2-13 via mXylylene) [R4131] yielded an IC50 of 278 nM.

Molecule B3 returned a 50% inhibitory concentration (IC50) of 1960 nM.

Turning to B4, the concentration for half-maximal inhibition (IC50) came to 695 nM. Consider B5, for which the IC50 amounted to 281 nM. As for Ac-[Nva]SY[Tle]A[DAPTZAC3][NMeA][ξPhg][Trp(7-aza)]Y[NMePhe(4-F)][Sar]S-NH2 (also: places Phg, 7-azaTrp, NMe-4-F-Phe, Sar at 9, 10, 12, 13) [R4148], the IC50 was 6000 nM. Compared with the last molecule, the IC50 is about 21-fold higher. On to B6, for which the IC50 was 342 nM. This IC50 lies about 18-fold lower than the previous one. B7 showed an IC50 of 3390 nM. Ac-[Nva]CY[Tle]KH[NMeA]A[Trp(7-aza)]Y[NMeA][Sar]CGGGCVIM (linker 2-13 via mXylylene) [R4143] gave an IC50 of 1640 nM. B8 had an IC50 of 608 nM.

The molecule B9 yielded an IC50 of 411 nM. As for B10, the IC50 was determined as 1240 nM. As for B11, the IC50 is 392 nM. Compared with the last molecule, the IC50 is about 3.2-fold lower.

For the origin of these results see patent US20190119358A1.
